Experiment [1] has as its target SARS-Cov2 Spike Active Trimer SAT (R&D Systems; Catalog No. 10549-CV) (SARS-CoV-2) (UniProt P0DTC2).
For experiment [2] the target is unchanged. This is another data set of the same source.
For experiment [3] the target is unchanged. As to the kind of experiment: SPR (Carterra).
For experiment [4] the target is unchanged. As to the kind of experiment: SPR (Biacore). Background: In SPR one partner is held on a chip, and binding of the other changes the refractive index at the surface.
Experiment [5] has the same target. As to the kind of experiment: ELISA, serially diluted purified Nb-Fc against SAT antigen. On the technique in general: An ELISA detects its analyte on a solid surface through an enzyme-linked reagent.
The target of experiment [6] is SARS-COV-2 Spike(S) protein with an inactivated furin site, on HEK293-Spike cells (293-SARS2-S-dfur, (SARS-CoV-2) (UniProt P0DTC2)).

The source of these data is patent publication US20260150817A1.

Where two headings read alike, the source gives them in different places.

As to “human SAT Nb-Fc control VH-Ab-8 (HAb8-S) (Fc fusion)”, in experiment [1], the Response stood at 0.489; the off-rate constant (koff) – broadly, a measure of how fast the partners let go of each other – stood at 0.00294 s⁻¹; the association rate constant (kon) (usually the rate constant with which the complex forms) stood at 149000 M⁻¹ s⁻¹. Further, the dissociation constant (Kd) (in general, the concentration at which binding is half-saturated) in experiment [2] was 19.8 nM. Further, the Kd in experiment [3] was 37.3 nM. Moreover, the dissociation constant (Kd) in experiment [4] was 5.7 nM. Besides, the concentration giving a half-maximal response (EC50) (usually the concentration that produces a half-maximal response) in experiment [5] was determined as 0.018 nM. Also, in experiment [6], the GMFI (HEK293-Spike) came out at 430 and the GMFI Ratio over No 1st Ab control (HEK293-Spike) turned out to be 21.1.
